Consider two molecules from paper doi:10.1101/2022.06.09.495492, “An atypical F-actin capping protein modulates cytoskeleton behaviors crucial to colonization of Trichomonas vaginalis” (bioRxiv, 2022).

In assay [1] the target is T1, GST-Tvactin (T. vaginalis, UniProt A0A8U0WPZ0 1-376).
T1 construct: The same construct stands as GST-Tvactin on beads (pull-down), as G-actin (in G-buffer) and as F-actin (polymer, in F-buffer); the assays tell these apart; No removal of GST is described; also called GST fused-α-actin; G-actin; source: polymerized to F-actin in F-buffer), purified on glutathione-conjugated sepharose beads
The assay is described as follows: ELISA; solid-phase binding: 2.5 μM F-actin in F-buffer coated on a 96-well microplate; His-TvFACPα or His-△237 at 0-80 μM, 4°C overnight; anti-6×His detection, OD450; Scatchard plots. The conditions noted are these: both partners purified.

Assay [2] deals with T1, GST-Tvactin. The assay is described as follows: ELISA; solid-phase binding: 2.5 μM G-actin in G-buffer coated on a 96-well microplate; His-TvFACPα or His-△237 at 0-80 μM, 4°C overnight; anti-6×His detection, OD450; Scatchard plots. The conditions noted are these: both partners purified.
Assay [3] deals with T2, α-actin, endogenous (T. vaginalis) (T. vaginalis (endogenous in TH17 …, UniProt A0A8U0WPZ0 1-376)).
T2 construct: α-actin of Trichomonas vaginalis detected by an anti-α-actin antibody as a 42-kDa band; In the cell fractionation it stands as F-actin in the 100,000× g pellet; also called 42-kDa α-actin; F-actin
The assay is described as follows: co-sedimentation; actin biochemical fractionation of trophozoite lysates (Cytoskeleton Inc kit): 100,000× g for 1 hr, F-actin and associated proteins in the pellet, G-actin in the supernatant; western blotting; non-transgenic and transgenic TH17, flagellate and amoeboid forms, DMSO or TBB treatment. The conditions noted are these: partners not purified.

B1: His-TvFACPα (natural protein)
chain: MSESENIKIIKTFLANAPPGEYEQCTAALRSIVNDEDLINRARSETLKTWAEEECIVVDVEDHKVIICKEACQRDGIYVDPVTSSLITYDFESRIATPIGDQANMSDFAKELQEELTAYAKNAYKENAAAGVYDTNNGIVIVLRGSSISLKNFRTGKTVAKYTLSKSGSLEGKIVSIQHFFEKGNAVCQHDGDCNTTCSFGDAKSVVKAIRTFEDEWLADYKTTLEKIGTNVLFQLRRKFPYSKQKINWQQEITVGGGMKC
notes: also called His-TvFACPα wild type; Wt; source: recombinant from pET28-His-TvFACPα, purified to homogeneity (protocol of the supplier, QIAGEN)
B1: the Kd with GST-Tvactin [1] was 8.36 µM; with GST-Tvactin [2] it was 4.45 µM.

B2: HA-TvFACPα (natural protein)
chain: MSESENIKIIKTFLANAPPGEYEQCTAALRSIVNDEDLINRARSETLKTWAEEECIVVDVEDHKVIICKEACQRDGIYVDPVTSSLITYDFESRIATPIGDQANMSDFAKELQEELTAYAKNAYKENAAAGVYDTNNGIVIVLRGSSISLKNFRTGKTVAKYTLSKSGSLEGKIVSIQHFFEKGNAVCQHDGDCNTTCSFGDAKSVVKAIRTFEDEWLADYKTTLEKIGTNVLFQLRRKFPYSKQKINWQQEITVGGGMKC
notes: also called HA-TvFACPα wild type; source: T. vaginalis TH17 trophozoites, transgenic (Flp-HA-TvFACPα), in lysate
Take B2: in assay [3], the “co-sedimented with F-actin, fold of the endogenous form of the non-transfectant” value was about 2 fold.
